{"source": "patent US20090298169A1", "about": "“Pancreatic and Liver Endoderm Cells and Tissue by Differentiation of Definitive Endoderm Cells Obtained from Human Embryonic Stems” (The University of Georgia Research Foundation, priority 2006, published 2009)", "system": "BG02 hESCs", "assay": "QRT-PCR of mesendoderm, definitive endoderm and other lineage transcripts in hESCs differentiated in defined media", "format": "cell-based, human", "conditions": "FIG. 7; Wnt3a 25 ng/ml; over 72 hours of treatment", "experimental": "For DE differentiation, media was replaced after ˜18-24 hours with differentiation media (a), in the presence or absence of Wnt3a (25 ng/ml). RNA was prepared from cultures at times indicated and subject to QRT-PCR analysis of T, MixL1, GSC, Sox17 and CXCR4 transcripts. QRT-PCR reactions are normalized to GAPDH control. ‘Assays on demand’ QRT-PCR reactions were from Applied Biosystems and have been described previously (McLean et al., 2007).\nBG02 hESCs were plated in defined conditions (a) and after 18 hours media was switched to differentiation media (a) with Wnt3a (25 ng/ml) for the first 24 hours. The time course proceeded for 96 hours. Untreated hESCs (96 hours) or cells in differentiation media (a) were collected at 24, 48, 72 and 96 hours for QRT-PCR analysis. ‘Assays on demand’ QRT-PCR reactions were from Applied Biosystems and have been described previously (McLean et al., 2007).\nCulture of hESCs: Methods: hESCs are preferably grown in MEF-CM (details from previous filings) or defined media using Matrigel (1:200 dilution) as a growth matrix (for example). Cells are passaged manually or by using enzymatic methods such as collagenase or accutase and typically plated at 1×10^6 per 60 mm dish for 12-24 hours in hESC media then media is changes to promote DE differentiation (see ‘Differentiation media’ below). During differentiation, ‘differentiation media’ is replaced every day. […]"}
{"molecule": "Wnt3a: growth factor Wnt3a (25 ng/ml, R&D Systems) (protein, UniProt P56704 19-352, looked up) Protein Wnt-3a: SYPIWWSLAVGPQYSSLGSQPILCASIPGLVPKQLRFCRNYVEIMPSVAEGIKIGIQECQHQFRGRRWNCTTVHDSLAIFGPVLDKATRESAFVHAIASAGVAFAVTRSCAEGTAAICGCSSRHQGSPGKGWKWGGCSEDIEFGGMVSREFADARENRPDARSAMNRHNNEAGRQAIASHMHLKCKCHGLSGSCEVKTCWWSQPDFRAIGDFLKDKYDSASEMVVEKHRESRGWVETLRPRYTYFKVPTERDLVYYEASPNFCEPNPETGSFGTRDRTCNVSSHGIDGCDLLCCGRGHNARAERRREKCRCVFHWCCYVSCQECTRVYDVHTCK", "values": [{"measurement": "amount of CXCR4 mRNA produced, presence versus absence of Wnt3a", "value": "improves the amount of CXCR4 mRNA produced"}]}
